The source of these data is paper PMC7055372.

The assay concerns the target Transforming growth factor β-1 (TGFβ-1) (UniProt P01137). Nature of the assay: ELISA of cell-culture supernatant with anti-TGFβ-1 antibody after acid activation (latent complex formation/secretion). Conditions: HEK293T cells transfected, supernatant after 48 h; acid-activated (short incubation with HCl); parent: est. 1.0; read off a plot.
For “LAP of wild-type LTGFβ-1 C4S (full-length LTGFβ-1 expressed in HEK-293T cells) (from UniProt P01137) S109P”, the response (Normalized OD450) was 0.53.

Turning to “LAP of wild-type LTGFβ-1 C4S (full-length LTGFβ-1 expressed in HEK-293T cells) (from UniProt P01137) L111P”, the response (Normalized OD450) amounted to 0.18.

As to “LAP of wild-type LTGFβ-1 C4S (full-length LTGFβ-1 expressed in HEK-293T cells) (from UniProt P01137) E113P”, the response (Normalized OD450) is 0.6.
